Source: paper PMC6406907, “A H2AX–CARP-1 Interaction Regulates Apoptosis Signaling Following DNA Damage” (Cancers, 2019)
Each block holds one molecule with its values, some of them ahead of it.

How the values were obtained:
MDA-MB-468 cells = experiment: MTT cell viability/growth inhibition, MDA-MB-468; assay type: cell-based, human; conditions: MDA-MB-468 CARP-1 (Δ600–650) vs WT CARP-1-expressing counterparts, MTT, mean of three experiments
Experimental: (§1) Routine maintenance and culture of MDA-MB-468 (lacking estrogen receptor; ER and having mutant p53) human triple-negative breast cancer (TNBC) cells, human cervical cancer HeLa, human kidney cancer UOK 262, non-small-cell lung cancer H1975, and HCC827 cells was carried out essentially as described previously. Generation and characterization of MDA-MB-468 cells expressing reduced CARP-1 was described previously. The stable sublines were generated by transfecting the MDA-MB-468 and Hela cells with the pcDNA3 vector, pcDNA3-CARP-1 wild-type (WT)-myc-His clone 6.1.2, pcDNA3-CARP-1(Δ600–650)-myc-His, pcDNA3-EGFP, pcDNA3-EGFP-H2AX (1–35), or pcDNA3-EGFP-CARP-1 (636–650) plasmids, followed by selection in the presence of 800 μg/mL neomycin using described methods. The cell lysates from wild-type, untransfected cells, neomycin-resistant pools, or individual sublines were then subjected to MTT-based viability, confocal, immunoprecipitation (IP), and Western blot (WB) analyses as below.
(§2) The cell growth inhibition was assessed using an MTT assay following the established protocols described by us previously.
(§3) Here, we utilized human TNBC MDA-MB-468 and human cervical cancer HeLa cells to conduct an MTT-based dose-response analysis using Adriamycin and CFM compounds. […] Since Adriamycin, CFM-4, and CFM-4.16 have molecular masses of 543.3, 404.9, and 440.3, respectively, we chose to use an equimolar dose of each compound in the MTT assays. […] Prior reports established that phosphorylation of H2AX at serine 139 (γ-H2AX) is involved in DNA damage repair and apoptotic signaling by ATM/ATR and JNKs, respectively. Next, the MDA-MB-468, HeLa, and the kidney cancer UOK 262 cells were treated with a 10 μM dose of the CFM-4.16 or Adriamycin for various time periods. The cell lysates from the control, untreated, and treated cells were analyzed by WB for expression of CARP-1, phospho-JNK1/2, phospho-H2AX, and poly ADP ribose polymerase (PARP) proteins. […] The H2AX activation is also indicative of DNA damage and involves pro-apoptotic JNKs. Our data in Figure 1C and Figure S1B,C (Supplementary Materials) also show activation of JNKs; however, a robust JNK activation is co-incident with H2AX phosphorylation following treatments with Adriamycin or CFM-4.16.
Figure 7 Disruption of H2AX interaction with CARP-1 results in enhanced viabilities of CFM-4-, CFM-4.16-, or Adriamycin-treated cells in part due to reduced apoptosis. (A,C,D) Indicated MDA-MB-468 cell lines were treated with DMSO (Control), or with the noted dose and time of Adriamycin, CFM-4, or CFM-4.16 compounds. Determination of viable/live cells was carried out by MTT assay as described in Section 2. (B,E,F) Cell lysates derived from vehicle DMSO (Control), or CFM-4-, CFM-4.16-, or Adriamycin-treated cells were added to the wells that had immobilized fluorogenic substrates of noted caspases. The fluorescence released from the activated caspase-dependent cleavage of respective substrate was detected by a plate reader at the excitation and emission wavelengths of 380 nm and 460 nm, respectively, as detailed in Section 2. The columns in bar charts in panels A, C, D and B, […] represent means of three and two independent experiments, respectively; bars, SE. For panels C and D, * p < 0.05, **p < 0.01 and *** p ≤ 0.001 relative to the respective EGFP vector subline. For panels E and F, *** p ≤ 0.05 relative to the respective EGFP vector subline.
Figure 8 Ectopic expression of TAT-CARP-1 (636–650) peptide results in enhanced viabilities of Adriamycin-treated cells. MDA-MB-468 (A) or HeLa (B) cells were pre-incubated with 300 μg/mL indicated peptides for 72 h, followed by treatments with the noted dose and time of Adriamycin. Determination of viable/live cells was carried out using an MTT assay as described in Section 2. […]

HeLa cells = experiment: MTT cell viability/growth inhibition, HeLa; assay type: cell-based, human; conditions: HeLa CARP-1 (Δ600–650) vs WT CARP-1-expressing counterparts, mean of three experiments
Experimental: as §1, §2, §3
Figure 8 Ectopic expression of TAT-CARP-1 (636–650) peptide results in enhanced viabilities of Adriamycin-treated cells. MDA-MB-468 (A) or HeLa (B) cells were pre-incubated with 300 μg/mL indicated peptides for 72 h, followed by treatments with the noted dose and time of Adriamycin. Determination of viable/live cells was carried out using an MTT assay as described in Section 2. The bar charts in panels A and B represent means of three and two independent experiments, respectively; bars, SE. (C) Indicated cells were either pre-incubated with 6 μg/mL indicated peptides for 72 h or not (Control), followed by treatments with Adriamycin as noted. Cells were then processed for immunofluorescence staining for TAT-CARP-1 peptide (red), γH2AX (green), and DAPI (blue) as detailed in Section 2 and Figure S3 (Supplementary Materials). Insets in C show enlarged areas of respective photomicrographs to indicate presence of TAT-CARP-1 peptide and γH2AX in respective columns. The insets in the top and middle rows of the merge column show co-localization of TAT-CARP-1 peptide, and γH2AX (magnification: 250×).
Figure S7. Disruption of H2AX interaction with CARP-1 results in enhanced viabilities of CFM-4, CFM-4.16, or Adriamycin-treated cells in part due to reduced γH2AX and apoptosis. (A,B,C) Indicated HeLa cell lines were treated with DMSO (Control), noted dose and time of Adriamycin, CFM-4, or CFM-4.16 compounds. Determination of viable/live cells was carried out by MTT assay as in methods. The columns in bar charts in panels A, B, C represent means of three independent […]
experiments; bars, SE. […]

[1] = target: CARP-1 (636–650) peptide, biotin-labelled (human) (UniProt Q8IX12); experiment: SPR; SPRi (PlexArray HT); CARP-1 (636–650) peptide printed on bare gold-coated PlexArray Nanocapture chip, blocked with 5% non-fat milk; PBST pH 7.4, 25 °C; global fit to a 1:1 interaction model
Gst-H2AX = experiment: Gst-pulldown with Gst-H2AX; assay type: binding, human; conditions: E. coli-expressed, 4 °C, 2 h, WB anti-HA, Figure 5A
Experimental: Logarithmically growing cells were either untreated or treated with different agents for various time periods. The cells were lysed to prepare protein extracts. IP was carried out by incubating approximately 1 mg of the protein lysate with appropriate antibodies. The immunoprecipitates were then analyzed by SDS-PAGE, followed by WB with respective, interacting protein. For Gst-pulldown, Gst-H2AX or various His-TAT-HA-tagged CARP-1 peptides were generated in Escherichia coli (E. coli) BL21 cells essentially as described by us previously. Briefly, the competent E. coli BL-21 (DE3) pLysS cells were transformed separately with various recombinant pGEX-4T-1 or pTAT-HA constructs. The transformed cells were then subjected to selection by combined presence of ampicillin and chloramphenicol; various isolates for each transformation were obtained and bacterial lysates were characterized for expression of fusion peptides. Cells from each isolate were grown in 4 mL of LB medium containing ampicillin only until the optical density (OD)600 reached 0.4–0.8. Expression of fusion peptides was induced over 2–4 h incubation periods after Isopropyl β-D-1-thiogalactopyranoside (IPTG) addition. The cells were harvested, and pellets were stored at −80 °C overnight. […]

Molecule: O=C1N(Cc2ccccc2Cl)c2ccccc2C12NN=C(c1ccccc1)S2 (stereo not drawn) [CFM-4]
- growth inhibition of CARP-1 (Δ600–650)-expressing cells (MDA-MB-468 cells): resistant to inhibition by CFM-4 or ADR
- growth inhibition of CARP-1 (Δ600–650)-expressing cells (HeLa cells): resistant to inhibition by CFM-4 or ADR

- Kd [1]: 126 nM
- koff [1]: 0.000292 s⁻¹
- kon [1]: 2320 M⁻¹ s⁻¹
Molecule: H2AX (1–35) peptide (from UniProt P16104 1-35)

- binding with Gst-H2AX protein (Gst-H2AX): bound with Gst-H2AX protein
B1: His-TAT-HA-CARP-1 (552–654): E. coli-expressed His-TAT-HA-tagged CARP-1 peptide (peptide)
chain: RPEETHKGRTVPAHVETVVLFFPDVWHCLPTRSEWETLSRGYKQQLVEKLQGERKEADGEQDEEEKDDGEAKEISTPTHWSKLDPKTMKVNDLRKELESRALS
modifications: left off: His, end not stated, kept | TAT, end not stated, kept | HA, end not stated, kept
notes: E. coli-expressed His-TAT-HA-tagged CARP-1 peptide
